Biological target: T1, IL-18Rα, human (human, UniProt Q13478 19-541)
T1 construct: whole, on cells; Detected on human NK cells with mouse monoclonal anti-IL-18Rα (Clone 70625; R&D Systems); also called IL-1R5/IL-18R
T1 sequence (looked up): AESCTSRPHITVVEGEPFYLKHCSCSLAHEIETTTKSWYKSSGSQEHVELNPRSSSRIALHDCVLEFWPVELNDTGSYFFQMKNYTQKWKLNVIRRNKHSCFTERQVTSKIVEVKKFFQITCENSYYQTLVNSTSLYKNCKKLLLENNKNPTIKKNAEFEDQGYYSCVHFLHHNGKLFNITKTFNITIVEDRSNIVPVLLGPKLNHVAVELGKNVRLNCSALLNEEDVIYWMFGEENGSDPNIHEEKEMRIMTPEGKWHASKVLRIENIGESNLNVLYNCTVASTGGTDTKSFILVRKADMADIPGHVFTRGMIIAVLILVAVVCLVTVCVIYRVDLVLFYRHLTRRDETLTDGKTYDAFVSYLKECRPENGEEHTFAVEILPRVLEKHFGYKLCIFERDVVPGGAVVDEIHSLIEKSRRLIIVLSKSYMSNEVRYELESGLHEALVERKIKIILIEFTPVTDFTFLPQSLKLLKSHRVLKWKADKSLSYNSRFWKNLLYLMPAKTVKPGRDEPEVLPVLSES
Assay: STED microscopy of human NK cells stimulated with IL-18, co-stained with anti-IL-1R8 and anti-IL-18Rα antibodies
Description: Human NK cells were enriched and left to adhere on poly-D-lysine (Sigma-Aldrich)-coated coverslips, stimulated with IL-18 (50 ng ml⁻¹; 1 min, 5 min, 10 min), fixed with 4% PFA, incubated with 5% normal donkey serum (Sigma-Aldrich), 2% BSA, 0.05% Tween in PBS2+ (pH 7.4) (blocking buffer), and then with biotin-conjugated goat polyclonal anti-human IL-1R8 antibody or biotin-conjugated normal goat IgG (all from R&D Systems) and mouse monoclonal anti-IL-18Rα (Clone 70625; R&D Systems) or mouse IgG1 (Invitrogen), all diluted at 5 μg ml⁻¹ in blocking buffer, followed by Alexa Fluor 488-conjugated donkey anti-goat IgG antibody and Alexa Fluor 555 donkey anti-mouse IgG antibody (both from Molecular Probes). Mowiol was used as mounting medium. STED xyz images were acquired in a unidirectional mode with a Leica SP8 STED3X confocal microscope system. Alexa Fluor 488 was excited with a 488 nm argon laser and emission collected from 505 to 550 nm applying a gating between 0.4 and 7 ns to avoid collection of reflection and autofluorescence. Alexa Fluor 555 was excited with a 555/547 nm-tuned white light laser and emission collected from 580 to 620 nm. Line sequential acquisition was applied to avoid fluorescence overlap. The 660 nm CW-depletion laser (80% of power) was used for both excitations. […]

binding result: binds
B1: Interleukin-1 receptor 8 (IL-1R8), human (receptor)
chain: MPGVCDRAPDFLSPSEDQVLRPALGSSVALNCTAWVVSGPHCSLPSVQWLKDGLPLGIGGHYSLHEYSWVKANLSEVLVSSVLGVNVTSTEVYGAFTCSIQNISFSSFTLQRAGPTSHVAAVLASLLVLLALLLAALLYVKCRLNVLLWYQDAYGEVEINDGKLYDAYVSYSDCPEDRKFVNFILKPQLERRRGYKLFLDDRDLLPRAEPSADLLVNLSRCRRLIVVLSDAFLSRAWCSHSFREGLCRLLELTRRPIFITFEGQRRDPAHPALRLLRQHRHLVTLLLWRPGSVTPSSDFWKEVQLALPRKVQYRPVEGDPQTQLQDDKDPMLILRGRVPEGRALDSEVDPDPEGDLGVRGPVFGEPSAPPHTSGVSLGESRSSEVDVSDLGSRNYSARTDFYCLVSKDDM
notes: Endogenous IL-1R8 on human primary NK cells; NP_001128525.1, NP_001128526.1, NP_068577.2); also called SIGIRR; single immunoglobulin IL-1R-related receptor

Source: patent US20200281977A1 (HUMANITAS MIRASOLE S P A, published 2020)
